# Measurements as given in patent publication US20210054097A1 (Novo Nordisk, published 2021).
# Ends that are not written are not given here.
# B1: Nb 501A02 (VHH)
# VHH: EVQLVESGGGLVQPGGSLRLSCAASGFTFSNYEMSWVRQAPGKGLEWVSDIGSGGGVSTYYADSVKGRFTISRDNAKNTLYLQMNSLKPEDTAMYYCARGWTYGSDGMDYWGKGTLVTVSS
# notes: monovalent control Nanobody; also called control Nanobody; not shown: C-terminal FLAG3 and HIS6 tag
# B2: Nb 701C06 (VHH)
# VHH: EVQLVESGGGVVQPGGSLRLSCAASGRTFSTYAMGWFRQAPGKEREFVAAISRRGGRTYYADSVKGRFTISRDNSKNTVYLQMNSLRPEDTALYYCAADATARDGLLDYWGQGTLVTVSS
# notes: monovalent Nanobody; not shown: C-terminal FLAG3 and HIS6 tag
# B3: Nb 729A04 (VHH)
# VHH: EVQLVESGGGVVQPGGSLRLSCAASGFTFSDYAMSWVRQAPGKGLEWVSGITSGGGRTYYADSVKGRFTISRDNSKNTLYLQMNSLRPEDTALYYCAAVRTLGLRGSYDYWGQGTLVTVSS
# notes: as for B2
# Columns and labels:
# [1] = biological target: T1, FX activation peptide 12-mer TSSSGEAPDSIT (human); experiment: peptide ELISA
# T1 peptide: TSSSGEAPDSIT-biotin
# Method in brief: (§1)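 Nanobodies (FLAG-tagged) or IgG antibodies, 2 μg/mL, incubated 1 h on C-terminally biotinylated peptide captured via streptavidin, washing buffer pH 8.60 containing CaCl₂ and Tween 20. Read-out: HRP-conjugated secondary antibody with TMB colour development.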
# [2] = biological target: T2, FX activation peptide 12-mer LDPTENPFDLLD (human); experiment: peptide ELISA
# T2 peptide: LDPTENPFDLLD-biotin
# Method in brief: as §1
# [3] = biological target: T3, FX activation peptide 12-mer SITWKPYDAADL (human); experiment: peptide ELISA
# T3 peptide: SITWKPYDAADL-biotin
# Method in brief: as §1
# [4] = biological target: T4, FX activation peptide 12-mer QATSSSGEAPDS (human); experiment: peptide ELISA
# T4 peptide: QATSSSGEAPDS-biotin
# Method in brief: as §1
# [5] = biological target: T5, FX activation peptide 12-mer ATSSSGEAPDSI (human); experiment: peptide ELISA
# T5 peptide: ATSSSGEAPDSI-biotin
# Method in brief: as §1
# [6] = biological target: T6, FX activation peptide 12-mer KPYDAADLDPTE (human); experiment: peptide ELISA
# T6 peptide: KPYDAADLDPTE-biotin
# Method in brief: as §1
# [7] = biological target: T7, FX activation peptide 12-mer TWKPYDAADLDP (human); experiment: peptide ELISA
# T7 peptide: TWKPYDAADLDP-biotin
# Method in brief: as §1
# [8] = biological target: T8, FX activation peptide 12-mer ENPFDLLDFNQT (human); experiment: peptide ELISA
# T8 peptide: ENPFDLLDFNQT-biotin
# Method in brief: as §1
# [9] = biological target: T9, FX activation peptide 12-mer DAADLDPTENPF (human); experiment: peptide ELISA
# T9 peptide: DAADLDPTENPF-biotin
# Method in brief: as §1
# [10] = biological target: T10, FX activation peptide 12-mer SSSGEAPDSITW (human); experiment: peptide ELISA
# T10 peptide: SSSGEAPDSITW-biotin
# Method in brief: as §1
# [11] = biological target: T11, FX activation peptide 12-mer DSITWKPYDAAD (human); experiment: peptide ELISA
# T11 peptide: DSITWKPYDAAD-biotin
# Method in brief: as §1
# [12] = biological target: T12, FX activation peptide 12-mer LDFNQTQPERGD (human); experiment: peptide ELISA
# T12 peptide: LDFNQTQPERGD-biotin
# Method in brief: as §1
# [13] = biological target: T13, FX activation peptide 12-mer ITWKPYDAADLD (human); experiment: peptide ELISA
# T13 peptide: ITWKPYDAADLD-biotin
# Method in brief: as §1
# [14] = biological target: T14, FX activation peptide 12-mer AADLDPTENPFD (human); experiment: peptide ELISA
# T14 peptide: AADLDPTENPFD-biotin
# Method in brief: as §1
# [15] = biological target: T15, FX activation peptide 12-mer YDAADLDPTENP (human); experiment: peptide ELISA
# T15 peptide: YDAADLDPTENP-biotin
# Method in brief: as §1
# [16] = biological target: T16, FX activation peptide 12-mer PDSITWKPYDAA (human); experiment: peptide ELISA
# T16 peptide: PDSITWKPYDAA-biotin
# Method in brief: as §1
# [17] = biological target: T17, FX activation peptide 12-mer TQPERGDNNLTR (human); experiment: peptide ELISA
# T17 peptide: TQPERGDNNLTR-biotin
# Method in brief: as §1
# [18] = biological target: T18, FX activation peptide 12-mer SSGEAPDSITWK (human); experiment: peptide ELISA
# T18 peptide: SSGEAPDSITWK-biotin
# Method in brief: as §1
# [19] = biological target: T19, FX activation peptide 12-mer DPTENPFDLLDF (human); experiment: peptide ELISA
# T19 peptide: DPTENPFDLLDF-biotin
# Method in brief: as §1
# [20] = biological target: T20, FX activation peptide 12-mer FNQTQPERGDNN (human); experiment: peptide ELISA
# T20 peptide: FNQTQPERGDNN-biotin
# Method in brief: as §1
# [21] = biological target: T21, FX activation peptide 12-mer WKPYDAADLDPT (human); experiment: peptide ELISA
# T21 peptide: WKPYDAADLDPT-biotin
# Method in brief: as §1
# [22] = biological target: T22, FX activation peptide 12-mer SGEAPDSITWKP (human); experiment: peptide ELISA
# T22 peptide: SGEAPDSITWKP-biotin
# Method in brief: as §1
# [23] = biological target: T23, FX activation peptide 12-mer DLLDFNQTQPER (human); experiment: peptide ELISA
# T23 peptide: DLLDFNQTQPER-biotin
# Method in brief: as §1
# [24] = biological target: T24, human plasma-derived Factor X zymogen (human, UniProt P00742 41-179; P00742 183-488); experiment: SPR steady state, Nb captured by anti-His mAb, FX injected
# T24 construct: Plasma-derived, bought (Haematologic Technologies); also called FX; human FX
# Description: Binding of purified anti-FX Nanobodies (Nb) to human plasma-derived FX (Haematologic Technologies Inc, USA) was probed by Surface Plasmon Resonance (SPR) (Biacore T200). Briefly, anti-His mAb (MAB050 from R&D systems) was immobilised on a CM4 sensor chip using standard amine coupling chemistry. Anti-FX Nanobodies (10 nM), according to Table 3, was injected at a flow rate of 10 μL/min for 1 minute. Subsequently 4096, 1024, 256, 64, 16, 4, and 0 nM of FX were injected at a flow rate of 30 μL/min for 4 minutes to allow for binding to anti-FX Nb followed by a 5 minutes running buffer (10 mM HEPES, 150 mM NaCl, 5 mM CaCl₂, 0.05% (v/v) Surfactant P20, 1 mg/mL bovine serum albumin, pH 7.4) injection allowing dissociation from anti-FX Nanobody®. The running buffer was also for dilution of anti-FX Nb and FX samples. Regeneration of the chip was achieved using a regeneration buffer consisting of 3M MgCl₂, 30 seconds contact time, and a 30 μL/min flow rate. The binding data were collected at 25° C. and were analysed according to a 1:1 model using BiaEvaluation 4.1 supplied by the manufacturer (Biacore AB, Uppsala, Sweden).
# Therefore, the reported KD values are determined based on steady state analysis. The strongest binder identified is Nb702C12, while the others Nanobodies® tested binds FX with a slightly higher KD and lower Rₘₐₓ.
# T24 sequence (P00742 41-179, chain 1 of 2): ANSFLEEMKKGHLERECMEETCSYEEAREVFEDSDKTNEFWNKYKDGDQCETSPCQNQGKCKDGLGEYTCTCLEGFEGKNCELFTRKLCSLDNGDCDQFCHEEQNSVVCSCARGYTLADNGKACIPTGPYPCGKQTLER
# T24 sequence (P00742 183-488, chain 2 of 2): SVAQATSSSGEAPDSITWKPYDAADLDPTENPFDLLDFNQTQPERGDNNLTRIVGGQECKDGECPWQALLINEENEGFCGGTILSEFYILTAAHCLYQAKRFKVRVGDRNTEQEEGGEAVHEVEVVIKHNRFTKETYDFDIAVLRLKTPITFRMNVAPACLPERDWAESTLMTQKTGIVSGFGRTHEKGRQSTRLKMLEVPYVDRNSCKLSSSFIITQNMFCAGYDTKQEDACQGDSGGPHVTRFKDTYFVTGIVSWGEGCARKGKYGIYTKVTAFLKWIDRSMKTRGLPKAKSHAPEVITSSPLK
binder,measurement,setting,value
B1,ELISA signal relative to background,[1],0.76
same,binding result,[1],no binding (tested: 2 µg/mL)
same,ELISA signal relative to background,[2],0.91
same,binding result,[2],no binding (tested: 2 µg/mL)
same,ELISA signal relative to background,[3],0.71
same,binding result,[3],no binding (tested: 2 µg/mL)
same,ELISA signal relative to background,[4],0.82
same,binding result,[4],no binding (tested: 2 µg/mL)
same,ELISA signal relative to background,[5],0.82
same,binding result,[5],no binding (tested: 2 µg/mL)
same,ELISA signal relative to background,[6],0.82
same,binding result,[6],no binding (tested: 2 µg/mL)
same,ELISA signal relative to background,[7],0.74
same,binding result,[7],no binding (tested: 2 µg/mL)
same,ELISA signal relative to background,[8],0.82
same,binding result,[8],no binding (tested: 2 µg/mL)
same,ELISA signal relative to background,[9],0.88
same,binding result,[9],no binding (tested: 2 µg/mL)
same,ELISA signal relative to background,[10],0.82
same,binding result,[10],no binding (tested: 2 µg/mL)
same,ELISA signal relative to background,[11],0.79
same,binding result,[11],no binding (tested: 2 µg/mL)
same,ELISA signal relative to background,[12],0.74
same,binding result,[12],no binding (tested: 2 µg/mL)
same,ELISA signal relative to background,[13],0.74
same,binding result,[13],no binding (tested: 2 µg/mL)
same,ELISA signal relative to background,[14],0.79
same,binding result,[14],no binding (tested: 2 µg/mL)
same,ELISA signal relative to background,[15],0.71
same,binding result,[15],no binding (tested: 2 µg/mL)
same,ELISA signal relative to background,[16],0.79
same,binding result,[16],no binding (tested: 2 µg/mL)
same,ELISA signal relative to background,[17],0.85
same,binding result,[17],no binding (tested: 2 µg/mL)
same,ELISA signal relative to background,[18],0.71
same,binding result,[18],no binding (tested: 2 µg/mL)
same,ELISA signal relative to background,[19],0.88
same,binding result,[19],no binding (tested: 2 µg/mL)
same,ELISA signal relative to background,[20],0.71
same,binding result,[20],no binding (tested: 2 µg/mL)
same,ELISA signal relative to background,[21],0.74
same,binding result,[21],no binding (tested: 2 µg/mL)
same,ELISA signal relative to background,[22],0.76
same,binding result,[22],no binding (tested: 2 µg/mL)
same,ELISA signal relative to background,[23],0.76
same,binding result,[23],no binding (tested: 2 µg/mL)
B2,Kd,[24],960 nM
same,ELISA signal relative to background,[1],0.87
same,ELISA signal relative to background,[2],0.94
same,ELISA signal relative to background,[3],0.94
same,ELISA signal relative to background,[4],0.94
same,ELISA signal relative to background,[5],0.91
same,ELISA signal relative to background,[6],0.9
same,ELISA signal relative to background,[7],1
same,ELISA signal relative to background,[9],0.85
same,ELISA signal relative to background,[10],0.9
same,ELISA signal relative to background,[11],0.93
same,ELISA signal relative to background,[12],0.93
same,ELISA signal relative to background,[13],1.03
same,ELISA signal relative to background,[14],0.82
same,ELISA signal relative to background,[15],0.85
same,ELISA signal relative to background,[16],0.92
same,ELISA signal relative to background,[17],0.97
same,ELISA signal relative to background,[18],0.89
same,ELISA signal relative to background,[20],0.88
same,ELISA signal relative to background,[21],0.99
same,ELISA signal relative to background,[22],0.88
same,ELISA signal relative to background,[23],1.13
B3,ELISA signal relative to background,[1],1.12
same,ELISA signal relative to background,[3],1.13
same,ELISA signal relative to background,[4],1.08
same,ELISA signal relative to background,[5],1.24
same,ELISA signal relative to background,[6],1.33
same,ELISA signal relative to background,[7],0.99
same,ELISA signal relative to background,[8],17.8
same,ELISA signal relative to background,[9],1.1
same,ELISA signal relative to background,[10],1.24
same,ELISA signal relative to background,[11],1.05
same,ELISA signal relative to background,[12],0.98
same,ELISA signal relative to background,[13],1.28
same,ELISA signal relative to background,[14],1.05
same,ELISA signal relative to background,[15],1.06
same,ELISA signal relative to background,[16],0.95
same,ELISA signal relative to background,[17],1.09
same,ELISA signal relative to background,[18],0.96
same,ELISA signal relative to background,[19],4.03
same,ELISA signal relative to background,[20],1.05
same,ELISA signal relative to background,[21],1.2
same,ELISA signal relative to background,[22],0.98
same,ELISA signal relative to background,[23],1.12
